Measurements reported in PMC10942606 (eLife, 2023).
Where a chain is given by its changes, count along the chain named. Names may count otherwise.

B1: PCNA (endogenous, S. pombe) (natural protein, S. pombe (endogenous in S. pombe), UniProt Q03392 1-260, looked up)
chain: MLEARFQQAALLKKLLDAIKELVTDANFDCNDNGISLQAMDSSHVALVSMLIKSDGFEPYRCDRNIALGINLNALSKVLRCAQNEDLVTLKAEDTPEVLNLVFESEKNDRISDYDVKLMDIDQEHLGIPDIEYDATITMPAAEFQRITRDLLTLSDSVTINASKEGVRFSCKGDIGNGSTTLKQHTDLSDQDQSIEISLTQAVTLTFSLKYLAQFTKATPLATRVTLSMSNDVPLLVEYKMESGFLRFYLAPKIGEEDEE
B2: Pcf3 (small subunit of SpCAF-1) (natural protein, S. pombe, UniProt Q9Y825 1-408, looked up)
chain: MNTELDMQNFEHIKFLENQISEDHFRWKKNSKHLYNLLITRTLTWPSLSIQWLSAMESITEKAVLKNRLLLGTHAAEGMPNFLQLADLDLPDFNQTILDPVKHYNEDTGELGGYSMQHSCKFQISQRILHNGDVNRVRHMPQNPNIIATMSSCGNAYIFDRTKYTSMPAEEFLPNISLIGHKKEGFGLSWNRQQNCRLVTAANDSKILEWDLNNFSRDTRCLTPVKDFHYDDSPVNDVEYHPHHTNLYIAVNDNGIAFICDNRLQQTCSKTVKASNPLFSVRHNPSIATLFALGSEQDLQLWDLRNLNKSVFNTSEDLSDNRLKVPSRLTLGGTSLSWSWRHSGRIVSACQEYCYVWNFNKANPLEFVHAGHKGTVNEVDFDPFEAQCIASVADDNELHIWKPNVIVN
B3: Pcf1_KER-PIP (56-185) (domain or fragment, S. pombe, UniProt Q1MTN9 56-185, looked up)
chain: KLSYEGNRKKRIYNGSAEAGKEKKLQKQRAQEERIRQKEAERLKREKERQQREQEKKLREQEKIAAKKMKELEKLEKERIRLQEQQRRKEERDQKLREKEEAQRLRQEQILNKERQQLKLNNFFTKGVEK
B4: Pcf1_KER*-PIP (56-185, R147E-K150E-K154E-R161E-K168E) (domain or fragment, S. pombe, UniProt Q1MTN9 56-185, looked up)
chain: B3 chain with R92E, K95E, K99E, R106E, K113E
B5: Pcf1 (large subunit of SpCAF-1) (natural protein, S. pombe, UniProt Q1MTN9 1-544, looked up)
chain: MNSESVDSDVAASTSNKGNELCSSSTDITSLSVSSPNESVIHSSHSASEADEYVCKLSYEGNRKKRIYNGSAEAGKEKKLQKQRAQEERIRQKEAERLKREKERQQREQEKKLREQEKIAAKKMKELEKLEKERIRLQEQQRRKEERDQKLREKEEAQRLRQEQILNKERQQLKLNNFFTKGVEKRIAPNENFVADKTDELNEFEKEFRPFFIKHQMSLSKYPSPNESDSFLDEVLSTSKSYPLKLNDIFTPSDAVSSANSLGVSNRNSENEVRQLMSAYQDPSVSKPQEILSCLSQIPIKFIFFYQDVRPPYFGSYTKTHSHGSNVLLNPWLEDEDIDYTYDSEAEWVADEEDDGEDLESEDEEVDNSDDIVEDGDNAFVDDEDDDKDSVNASNTHRSSGPLEVIVEGPVWDSKFLPDFNCLSLIEPISSFSASTYLQIDPKEDLWASQDTAPASSGMTIGPTSSLSDDLQVRFPSEDIPKFIEYVRNSHDNKVFLIENLRHMFPYVTKNIISETLGKVAVRKGKSVSDGWIIKENFASLLSS
B6: SpCAF-1 complex (Pcf1-Pcf2-Pcf3), wild type, full length (complex, S. pombe)
chain 1: B5 chain
chain 2: MRAEVLQIRWHYDANDDHTPIYSVDFQKNSLNKFATCGGDSKIRIWQLITSESSTKVEYLSTLSRHTQAVNVVRFNPEGNILATAGDEGTIMLWVPTNTPITTLADDAEELALAKEYWKVKIVCRSMGSEIYDLCWSVDSNFLIAGAMDNSLRLYDAHTGQLLTQKFDHSHYVQGVCWDPLNQYIVSESSDRSICLYEIQEEKKNPKKFQLVLKSRICRIEYNVTKFELISVTKPLNNDESSGISEPIETSNNNESPVSKHEALSSTANIVKDGSLERTEPPNSLNSKISYSLYCNETLVSFFRRPAFSPDGLLLVTPAGRLRPHGQPNFEVPYTAYIYTRGSITKQPVACLNGFKKPVIAVRFSPIHYELNSFSNFSFTSVSFNLPYRMVFAVACQDAVYIYDTQTCKPFYRAVNLHYSNLTDIAWNDDGNVLLMTSIDGFCSVITFEPGELGVKSQHKISLPEKRSASPSSIDDSQDNTAGGPATTTLIPRKVESSKVSKKRIAPTPVYP
chain 3: B2 chain
B7: SpCAF-1-KER* complex (Pcf1 R147E-K150E-K154E-R161E-K168E, Pcf2, Pcf3) (complex, S. pombe)
chain 1: B5 chain with R147E, K150E, K154E, R161E, K168E
chain 2: B6 chain 2
chain 3: B2 chain
B8: SpPCNA (recombinant S. pombe PCNA) (natural protein, UniProt Q03392 1-260, looked up)
chain: B1 chain
B9: Pcf2 (medium subunit of SpCAF-1) (natural protein, S. pombe, UniProt O13985 1-512, looked up)
chain: B6 chain 2
B10: Pcf1_ED (325-396) (domain or fragment, S. pombe, UniProt Q1MTN9 325-396, looked up)
chain: SNVLLNPWLEDEDIDYTYDSEAEWVADEEDDGEDLESEDEEVDNSDDIVEDGDNAFVDDEDDDKDSVNASNT

Key:
[1] = target: FLAG-Pcf1-ED* (expressed from the endogenous pcf1 gene) (S. pombe, UniProt Q1MTN9 1-544, Y340A | W348A); assay: co-IP
[2] = target: B5; assay: SEC-SAXS
[3] = target: B8; assay: ITC
S. pombe histones H3−H4 [4] = target: T1, S. pombe histones H3−H4 (S. pombe, UniProt P09988 1-136; P09322 1-103); assay: NMR titration
SEC = target: the molecule itself; assay: SEC
S. pombe histones H3−H4 [5] = target: T1, S. pombe histones H3−H4; assay: SEC
[6] = target: B6; assay: native gel or EMSA
S. pombe histones H3−H4 [7] = target: T1, S. pombe histones H3−H4; assay: NMR titration; remark: listed apart in the source

B1
fold change of bound PCNA against WT Pcf1 [1]: 8 fold of WT Pcf1

B2
stoichiometry N [2]: 1

B3
Kd [3]: 0.7 ± 0.2 µM | dH [3]: 2.9 ± 0.6 kCal.M^–1 | stoichiometry N [3]: 0.64 ± 0.04

B4
Kd [3]: 7.1 ± 1.5 µM | dH [3]: 1 ± 0.5 kCal.M^–1 | stoichiometry N [3]: 0.7 ± 0.2

B5
binding result (S. pombe histones H3−H4 [4]): binds | binding result (SEC): binds

B6
binding result (S. pombe histones H3−H4 [5]): binds

B7
binding result (S. pombe histones H3−H4 [4]): binds

B8
binding result [6]: binds

B9
stoichiometry N [2]: 1

B10
binding result (S. pombe histones H3−H4 [7]): binds
